± gives the uncertainty stated by the source.
B1: Homeobox protein cut-like 1, residues 941 to 1008; numbered along this chain, P39880 (parent)
chain: QEVDTIELTRQVKEKLAKNGICQRIFGEKVLGLSQGSVSDMLSRPKPWSKLTQKGREPFIRMQLWLNG

Variants of: B1
Test: abundance fitness (aPCA) (normalised: wild type 0, dead -1); higher = more abundant; growth selection in yeast, the domain comes from the species named
Settings: Homo sapiens

| Variant | abundance fitness |
| --- | --- |
| L33T | -0.06 ± 0.061 |
| L33A | -0.079 ± 0.06 |
| L33Q | -0.232 ± 0.089 |
| L33H | -0.174 ± 0.083 |
| L33P | -0.49 ± 0.082 |
| L64Q | 0.144 ± 0.082 |
| L64R | 0.103 ± 0.055 |
| L64P | -0.562 ± 0.074 |
| K29I | -0.57 ± 0.22 |
| K29R | -0.05 ± 0.049 |
| K29P | -0.431 ± 0.071 |
| K29M | -0.254 ± 0.078 |
| K29D | -0.202 ± 0.096 |
| K29N | 0.365 ± 0.15 |
| K29S | -0.12 ± 0.051 |
| K29T | 0.027 ± 0.068 |
| K29G | -0.17 ± 0.063 |
| K29Y | -0.492 ± 0.095 |
| E14Y | -0.418 ± 0.23 |
| E14G | -0.156 ± 0.064 |
| E14F | -0.443 ± 0.12 |
| E14S | -0.143 ± 0.062 |
| E14N | -0.063 ± 0.21 |
| G36N | -0.014 ± 0.088 |

| Variant | abundance fitness |
| --- | --- |
| G36F | -0.026 ± 0.076 |
| G36M | -0.058 ± 0.069 |
| Q23N | -0.133 ± 0.11 |
| Q23M | -0.195 ± 0.096 |
| Q23S | -0.029 ± 0.066 |
| Q23C | -0.281 ± 0.17 |
| Q23T | -0.104 ± 0.076 |
| Q23A | -0.161 ± 0.082 |
| Q23D | -0.429 ± 0.29 |
| N19K | -0.019 ± 0.08 |
| N19D | 0.17 ± 0.086 |
| N19T | 0.034 ± 0.062 |
| N19E | 0.098 ± 0.059 |
| N19Y | -0.331 ± 0.12 |
| N19L | 0.125 ± 0.052 |
| V12W | -0.226 ± 0.072 |
| V12R | -0.131 ± 0.052 |
| V12H | -0.142 ± 0.11 |
| N67D | -0.21 ± 0.11 |
| N67P | -0.758 ± 0.12 |
| N67C | -0.193 ± 0.092 |
| N67I | -0.326 ± 0.095 |
| N67Q | -0.088 ± 0.1 |
| N67V | -0.191 ± 0.1 |

| Variant | abundance fitness |
| --- | --- |
| N67S | -0.031 ± 0.061 |
| N67M | -0.186 ± 0.12 |
| I60Q | -0.142 ± 0.084 |
| I60V | 0.025 ± 0.059 |
| I60D | -0.29 ± 0.11 |
| E2A | -0.273 ± 0.027 |
| E2V | -0.16 ± 0.026 |
| E2S | -0.135 ± 0.027 |
| E2G | -0.081 ± 0.027 |
| E2L | -0.376 ± 0.026 |
| I25Q | -0.073 ± 0.083 |
| I25S | -0.03 ± 0.059 |
| I25V | -0.008 ± 0.051 |
| C22A | -0.053 ± 0.056 |
| C22F | -0.133 ± 0.1 |
| C22Q | -0.256 ± 0.08 |
| C22R | -0.16 ± 0.048 |
| C22W | -0.161 ± 0.071 |
| C22D | -0.045 ± 0.11 |
| C22E | -0.155 ± 0.073 |
| S39T | 0.003 ± 0.059 |
| S39D | -0.04 ± 0.098 |
| S39V | -0.073 ± 0.052 |
| S39E | 0.031 ± 0.07 |

| Variant | abundance fitness |
| --- | --- |
| S39N | 0.029 ± 0.088 |
| S39I | 0.037 ± 0.1 |
| S39Y | -0.094 ± 0.11 |
| S39W | -0.28 ± 0.072 |
| Q63R | 0.012 ± 0.054 |
| Q63H | 0.041 ± 0.1 |
| Q63K | 0.017 ± 0.072 |
| Q63M | -0.124 ± 0.069 |
| Q63T | -0.184 ± 0.065 |
| Q63N | -0.317 ± 0.11 |
| Q63D | -0.389 ± 0.091 |
| Q63C | -0.441 ± 0.1 |
| Q63S | -0.219 ± 0.055 |
| Q35W | 0.064 ± 0.076 |
| Q35A | 0.039 ± 0.06 |
| Q35Y | 0.015 ± 0.14 |
| Q35E | 0.124 ± 0.063 |
| Q35H | -0.024 ± 0.11 |
| F26R | -0.526 ± 0.056 |
| F26K | -0.45 ± 0.078 |
| F59E | -0.431 ± 0.091 |
| F59T | -0.686 ± 0.12 |
| F59A | -0.813 ± 0.099 |
| F59H | -1.18 ± 0.25 |

| Variant | abundance fitness |
| --- | --- |
| F59Y | -0.006 ± 0.092 |
| F59K | -0.954 ± 0.11 |
| F59S | -0.995 ± 0.1 |
| F59N | -1.2 ± 0.24 |
| M41A | 0.023 ± 0.053 |
| M41E | -0.335 ± 0.07 |
| D40T | -0.121 ± 0.072 |
| D40H | -0.118 ± 0.077 |
| D40E | 0.044 ± 0.065 |
| D40N | -0.133 ± 0.12 |
| D40V | -0.339 ± 0.053 |
| A17K | 0.033 ± 0.091 |
| A17T | -0.163 ± 0.069 |
| A17E | -0.066 ± 0.073 |
| A17W | -0.269 ± 0.059 |
| A17H | -0.108 ± 0.11 |
| A17R | -0.011 ± 0.052 |
| W65M | -0.744 ± 0.08 |
| W65I | -1.3 ± 0.21 |
| W65K | -0.715 ± 0.088 |
| W65N | -1.45 ± 0.3 |
| W65F | -0.326 ± 0.095 |
| K50A | -0.098 ± 0.058 |
| K50G | -0.194 ± 0.06 |

| Variant | abundance fitness |
| --- | --- |
| K50T | -0.059 ± 0.074 |
| V30L | -0.416 ± 0.49 |
| V30G | 0.111 ± 0.43 |
| S43R | -0.125 ± 0.055 |
| S43I | -0.187 ± 0.11 |
| S43Y | -0.174 ± 0.083 |
| S43G | -0.251 ± 0.055 |
| S43W | -0.407 ± 0.072 |
| S43E | 0.014 ± 0.077 |
| S43F | -0.373 ± 0.083 |
| W48T | -1.1 ± 0.13 |
| W48G | -0.919 ± 0.084 |
| W48E | -0.774 ± 0.12 |
| W48A | -0.904 ± 0.089 |
| W48R | -0.729 ± 0.059 |
| K18C | -0.261 ± 0.14 |
| K18I | -0.085 ± 0.12 |
| K18A | -0.083 ± 0.053 |
| K18M | -0.059 ± 0.068 |
| R10F | -0.307 ± 0.098 |
| R10H | -0.226 ± 0.12 |
| R10K | 0.074 ± 0.073 |
| R10I | -0.301 ± 0.094 |
| R10W | -0.509 ± 0.067 |

| Variant | abundance fitness |
| --- | --- |
| K46Y | -0.059 ± 0.17 |
| K46M | -0.15 ± 0.059 |
| K46R | -0.099 ± 0.048 |
| K46I | -0.184 ± 0.11 |
| K46T | -0.205 ± 0.074 |
| R44C | -0.007 ± 0.078 |
| Q1L | -0.218 ± 0.055 |
| Q1G | 0.06 ± 0.086 |
| Q1E | 0.214 ± 0.091 |
| Q1R | -0.046 ± 0.052 |
| Q1F | -0.088 ± 0.2 |
| K54P | -0.439 ± 0.077 |
| K54A | 0.011 ± 0.061 |
| K54L | -0.174 ± 0.053 |
| K54H | -0.111 ± 0.12 |
| K54R | -0.074 ± 0.048 |
| K54E | 0.159 ± 0.093 |
| K54W | -0.327 ± 0.077 |
| K54Q | -0.107 ± 0.076 |
| R56Q | -0.287 ± 0.084 |
| R56M | -0.238 ± 0.067 |
| R56W | -0.456 ± 0.062 |
| R56K | -0.045 ± 0.1 |

— the Human Domainome abundance scans (Beltran et al. 2025)
